From the supplement of paper PMC10567573

B1: ZNF511 (parent)
chain: HLYPADFRFDKPKKSRSPASAEAP
B2: DLC1 (parent)
chain: RDAIEALCRRLNTLNKCAVMKLEI

Variants of: B1
Assay: protein stability index of a GFP-peptide fusion (GPS, HEK-293T) (PSI 1-6); higher = more stable
Settings: c terminus: a fixed tail appended
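Note: lentivirally expressed fusions sorted by FACS into six bins by GFP to DsRed ratio, PSI derived from sequencing read proportions per bin multiplied by bin number.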

Compared with HLYPADFRFDKPKKSRSPASAEAM, HLYPADFRFDKPKKSRSPASAEAL is higher in protein stability index: 2.53 for the first, 2.92 for the second.

Compared with HLYPADFRFDKPKKSRSPASAEAQ, HLYPADFRFDKPKKSRSPASAEAY is higher in protein stability index: 2.6 for the first, 2.69 for the second.

First: HLYPADFRFDKPKKSRSPASAEAH
Second: HLYPADFRFDKPKKSRSPASAEAR
The protein stability index of the first is higher: 2.87 for the first, 2.39 for the second.

Going from HLYPADFRFDKPKKSRSPASAEAC to HLYPADFRFDKPKKSRSPASAEAD, the protein stability index rises from 2.88 to 3.44.

First: HLYPADFRFDKPKKSRSPASAEAW
Second: HLYPADFRFDKPKKSRSPASAEAA
The protein stability index of the first is lower: 2.14 for the first, 3.32 for the second.

Going from HLYPADFRFDKPKKSRSPASAEAV to HLYPADFRFDKPKKSRSPASAEAG, the protein stability index falls from 2.98 to 2.42.

Variants of: B2
Assay: as above
Settings: c terminus: a fixed tail appended

Compared with REAIEALCRRLNTLNKCAVMKLEI, RWAIEALCRRLNTLNKCAVMKLEI is higher in protein stability index: 3.12 for the first, 4.44 for the second.

Going from RPAIEALCRRLNTLNKCAVMKLEI to RQAIEALCRRLNTLNKCAVMKLEI, the protein stability index falls from 3.08 to 2.74.

Compared with RAAIEALCRRLNTLNKCAVMKLEI, RHAIEALCRRLNTLNKCAVMKLEI is lower in protein stability index: 2.4 for the first, 1.94 for the second.

Compared with RMAIEALCRRLNTLNKCAVMKLEI, RIAIEALCRRLNTLNKCAVMKLEI is lower in protein stability index: 3.99 for the first, 2.03 for the second.

Compared with RSAIEALCRRLNTLNKCAVMKLEI, RGAIEALCRRLNTLNKCAVMKLEI is lower in protein stability index: 3.79 for the first, 3.23 for the second.

Compared with RDAIEAACRRLNTLNKCAVMKLEI, RDAIEAECRRLNTLNKCAVMKLEI is lower in protein stability index: 2.37 for the first, 1.02 for the second.

First: RDAIEAGCRRLNTLNKCAVMKLEI
Second: RDAIEAFCRRLNTLNKCAVMKLEI
The protein stability index of the first is higher: 2.13 for the first, 2.12 for the second.

Compared with RDAIEADCRRLNTLNKCAVMKLEI, RDAIEACCRRLNTLNKCAVMKLEI is lower in protein stability index: 2.13 for the first, 1.97 for the second.

Compared with RDAIVALCRRLNTLNKCAVMKLEI, RDAIIALCRRLNTLNKCAVMKLEI is higher in protein stability index: 1.97 for the first, 2.84 for the second.

Going from RDAIMALCRRLNTLNKCAVMKLEI to RDAICALCRRLNTLNKCAVMKLEI, the protein stability index falls from 3.42 to 2.39.

First: RDAIHALCRRLNTLNKCAVMKLEI
Second: RDAIYALCRRLNTLNKCAVMKLEI
The protein stability index of the first is higher: 2.47 for the first, 2.23 for the second.

Compared with RDAISALCRRLNTLNKCAVMKLEI, RDAIPALCRRLNTLNKCAVMKLEI is higher in protein stability index: 1.83 for the first, 3.06 for the second.

First: RDAILALCRRLNTLNKCAVMKLEI
Second: RDAIWALCRRLNTLNKCAVMKLEI
The protein stability index of the first is higher: 3.21 for the first, 2.13 for the second.

Compared with RDAIAALCRRLNTLNKCAVMKLEI, RDAIRALCRRLNTLNKCAVMKLEI is higher in protein stability index: 2.3 for the first, 2.97 for the second.

Going from NDAIEALCRRLNTLNKCAVMKLEI to QDAIEALCRRLNTLNKCAVMKLEI, the protein stability index rises from 1.64 to 3.23.

Going from MDAIEALCRRLNTLNKCAVMKLEI to VDAIEALCRRLNTLNKCAVMKLEI, the protein stability index falls from 3.94 to 3.38.

First: YDAIEALCRRLNTLNKCAVMKLEI
Second: SDAIEALCRRLNTLNKCAVMKLEI
The protein stability index of the first is lower: 2.99 for the first, 3.94 for the second.

Compared with KDAIEALCRRLNTLNKCAVMKLEI, EDAIEALCRRLNTLNKCAVMKLEI is higher in protein stability index: 2.23 for the first, 2.47 for the second.

Going from PDAIEALCRRLNTLNKCAVMKLEI to LDAIEALCRRLNTLNKCAVMKLEI, the protein stability index falls from 2.85 to 2.02.

Going from DDAIEALCRRLNTLNKCAVMKLEI to GDAIEALCRRLNTLNKCAVMKLEI, the protein stability index falls from 2.4 to 2.35.

Compared with CDAIEALCRRLNTLNKCAVMKLEI, IDAIEALCRRLNTLNKCAVMKLEI is higher in protein stability index: 2.52 for the first, 2.9 for the second.

Compared with HDAIEALCRRLNTLNKCAVMKLEI, RDAIECLCRRLNTLNKCAVMKLEI is lower in protein stability index: 3.12 for the first, 3.07 for the second.

Going from RDAIENLCRRLNTLNKCAVMKLEI to RDAIEPLCRRLNTLNKCAVMKLEI, the protein stability index rises from 2.69 to 3.8.

First: RDAIERLCRRLNTLNKCAVMKLEI
Second: RDAIEELCRRLNTLNKCAVMKLEI
The protein stability index of the first is higher: 2.92 for the first, 1.64 for the second.

Compared with RDAIEDLCRRLNTLNKCAVMKLEI, RDAIESLCRRLNTLNKCAVMKLEI is higher in protein stability index: 1.41 for the first, 3.05 for the second.

Going from RDAIEHLCRRLNTLNKCAVMKLEI to RDAIEYLCRRLNTLNKCAVMKLEI, the protein stability index falls from 3.17 to 1.73.

Going from RDAIEFLCRRLNTLNKCAVMKLEI to RDAIEGLCRRLNTLNKCAVMKLEI, the protein stability index falls from 3.71 to 3.12.

Going from RDAIETLCRRLNTLNKCAVMKLEI to RDAIEMLCRRLNTLNKCAVMKLEI, the protein stability index rises from 2.35 to 2.97.

First: RDAIEKLCRRLNTLNKCAVMKLEI
Second: RDAIELLCRRLNTLNKCAVMKLEI
The protein stability index of the first is lower: 2.82 for the first, 3.11 for the second.

Going from RDAKEALCRRLNTLNKCAVMKLEI to RDAHEALCRRLNTLNKCAVMKLEI, the protein stability index rises from 2.37 to 2.44.

Going from RDAVEALCRRLNTLNKCAVMKLEI to RDAREALCRRLNTLNKCAVMKLEI, the protein stability index falls from 3.39 to 2.41.

First: RDAEEALCRRLNTLNKCAVMKLEI
Second: RDALEALCRRLNTLNKCAVMKLEI
The protein stability index of the first is lower: 1.44 for the first, 2.59 for the second.

Going from RDATEALCRRLNTLNKCAVMKLEI to RDAMEALCRRLNTLNKCAVMKLEI, the protein stability index rises from 2.24 to 2.53.

First: RDANEALCRRLNTLNKCAVMKLEI
Second: RDACEALCRRLNTLNKCAVMKLEI
The protein stability index of the first is higher: 2.4 for the first, 2.22 for the second.

Going from RDADEALCRRLNTLNKCAVMKLEI to RDAFEALCRRLNTLNKCAVMKLEI, the protein stability index rises from 2.67 to 3.05.

Compared with RDAAEALCRRLNTLNKCAVMKLEI, RDAQEALCRRLNTLNKCAVMKLEI is higher in protein stability index: 1.76 for the first, 2.12 for the second.

Going from RDMIEALCRRLNTLNKCAVMKLEI to RDKIEALCRRLNTLNKCAVMKLEI, the protein stability index falls from 3.33 to 2.7.

Compared with RDVIEALCRRLNTLNKCAVMKLEI, RDYIEALCRRLNTLNKCAVMKLEI is lower in protein stability index: 3.3 for the first, 2.37 for the second.

Compared with RDCIEALCRRLNTLNKCAVMKLEI, RDEIEALCRRLNTLNKCAVMKLEI is lower in protein stability index: 3.99 for the first, 1.48 for the second.

First: RDQIEALCRRLNTLNKCAVMKLEI
Second: RDNIEALCRRLNTLNKCAVMKLEI
The protein stability index of the first is lower: 2.95 for the first, 3.61 for the second.

Compared with RDGIEALCRRLNTLNKCAVMKLEI, RDIIEALCRRLNTLNKCAVMKLEI is higher in protein stability index: 2.33 for the first, 2.5 for the second.
